# Patent CN117138036A (NANJING RONGJIEKANG BIOTECHNOLOGY CO LTD, dated 2023)
# B1: 4E9V0 (VHH)
# VHH: QVQLVESGGGSVQAGGSLRLSCAASGDFYCMAWFRQAPGKEREGVATIRSGGRSTYYADSVKGRFTISKDNAKDTLYLQMNSLKPEDTAMYYCAVGVDGNCRNYWGQGTQVTVSS
# B2: dupilumab (antibody, V domains shown)
# VH: EVQLVESGGGLEQPGGSLRLSCAGSGFTFRDYAMTWVRQAPGKGLEWVSSISGSGGNTYYADSVKGRFTISRDNSKNTLYLQMNSLRAEDTAVYYCAKDRLSITIRPRYYGLDVWGQGTTVTVSS
# VL: DIVMTQSPLSLPVTPGEPASISCRSSQSLLYSIGYNYLDWYLQKSGQSPQLLIYLGSNRASGVPDRFSGSGSGTDFTLKISRVEAEDVGFYYCMQALQTPYTFGQGTKLEIKR
# B3: 2B3 (VHH)
# VHH: QVQLVESGGGSVQAGGSLRLSCAASGNTFSFSTYCMGWFRQSPGKEREGSLATIYDGSTAYAGSVKGRFTISVDNAKNILYLQMNNLKPEDTAMYYCAAAKYCMFWSDPSYWGQGTQVTVSS
# B4: reslizumab (antibody, V domains shown)
# VH: EVQLVESGGGLVQPGGSLRLSCAVSGLSLTSNSVNWIRQAPGKGLEWVGLIWSNGDTDYNSAIKSRFTISRDTSKSTVYLQMNSLRAEDTAVYYCAREYYGYFDYWGQGTLVTVSS
# VL: DIQMTQSPSSLSASVGDRVTITCLASEGISSYLAWYQQKPGKAPKLLIYGANSLQTGVPSRFSGSGSATDYTLTISSLQPEDFATYYCQQSYKFPNTFGQGTKVEVK
# Legend:
# IL-4Rα = IL-4Rα (UniProt P24394 26-232, limits assumed); assay: cell-based or functional assay
# IL-5 = IL-5 (human, UniProt P05113 20-134); assay: cell-based or functional assay
# IL-5, sequence (P05113 20-134 limits assumed): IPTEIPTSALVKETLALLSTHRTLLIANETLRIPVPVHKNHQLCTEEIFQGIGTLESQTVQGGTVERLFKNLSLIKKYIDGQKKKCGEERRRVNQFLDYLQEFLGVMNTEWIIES
Binder,"EC50, 中和IL-4诱导的TF-1细胞增殖 (IL-4Rα)","EC50, 中和IL-13诱导的TF-1细胞增殖 (IL-4Rα)","EC50, 中和IL-5诱导的TF-1细胞增殖 (IL-5)"
B1,0.281 nM,0.229 nM,–
B2,0.13 nM,0.178 nM,–
B3,–,–,0.336 nM
B4,–,–,0.122 nM
